# According to article PMC9834408 (Nature Communications, 2023):
# Where no end group is shown, it is not given here. [ ]: non-standard residue; d: D form. FAM = FAM fluorescent label on the peptide N-terminus (the text does not expand the abbreviation); pS = N[C@@H](COP(=O)(O)O)C(=O)O
# T1: RBM15 SPOC R834A (human, UniProt Q96T37 775-960, R834A)
# T1 construct: SPOC domain of human RBM15, residues 775-960, with R834A; not shown: His6, N-terminal, cleaved
# T1 sequence (looked up): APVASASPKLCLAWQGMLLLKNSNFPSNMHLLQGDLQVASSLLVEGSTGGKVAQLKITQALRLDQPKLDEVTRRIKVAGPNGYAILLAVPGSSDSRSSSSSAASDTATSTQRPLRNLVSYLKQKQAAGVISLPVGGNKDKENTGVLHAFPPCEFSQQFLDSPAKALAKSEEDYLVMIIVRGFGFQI
# B1: 1×S5P CTD diheptapeptide (peptide)
# peptide: {Atto‑488}-YSPT[pS]PSYSPTSPS
# notes: also called 1×S5P CTD peptide; CTD pS5; source: lyophilized peptide, labeled with Atto-488 NHS ester, purified by reverse-phase HPLC
# B2: WTAP peptide (first 19 N-terminal amino acids) phosphorylated at S14 (peptide, UniProt Q15007 1-19, looked up)
# peptide: MTNEEPLPKKVRL[pS]ETDFK
# notes: first 19 N-terminal amino acids of WTAP, with the LSETD motif; also called WTAP pS14
# Key:
# [1] = target: T2, SHARP SPOC (3496–3664 aa) (human, UniProt Q96T58 3496-3664); assay: fluorescence polarisation; fluorescence anisotropy; 90 nM labelled peptide (Atto-488 on CTD peptides, FAM on NCoR and FMR1 peptides) titrated with increasing concentrations of SPOC domain; 20 °C; 25 mM Tris-Cl pH 7.4, 25 mM NaCl, 1 mM DTT; three independent dilution series; conditions: both partners purified
# T2 construct: SPOC domain of human SHARP (SMRT/HDAC1 associated repressor protein, also known as SPEN), residues 3496-3664; also called SPOC domain of SHARP; SPEN SPOC; not shown: His6, N-terminal, cleaved
# [2] = target: T1, RBM15 SPOC R834A; assay: as above; conditions: both partners purified
binder,measurement,setting,value
{FAM}-REPAPLLSAQYETLSDSDD [unphosphorylated NCoR peptide],Kd,[1],13.6 ± 1.3 µM
B1,Kd,[1],23.8 ± 0.8 µM
{FAM}-REPAPLLSAQYETL[pS]DSDD (also: phosphoserine at S2436) [NCoR peptide phosphorylated at S2436],Kd,[1],1.75 ± 0.04 µM
B2,Kd,[2],50.4 ± 1.1 µM
